± gives the uncertainty stated by the source.

The nature of the series: amyloid nucleation score (Sup35N fusion, yeast selection) (log enrichment); library NNK3; higher = more nucleation; inactive = no reads after selection. The method, boiled down: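 Yeast lacking psi expressed peptides of 20 random codons fused to Sup35N, received 100 μM copper sulfate for 24 hours, and were then grown for 7 days at 30°C on medium lacking adenine and uracil. Illumina sequencing of input and output plasmid inserts provided the reads. Nucleation scores are DiMSum log enrichments of output over input, centred on the mode of non-aggregating sequences. Any sequence with under 100 input reads was excluded.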
On to SVNCHHLPNLHCWKYTKVEY, for which the amyloid nucleation score result is “inactive”.
With FYYLTKSGYAFRLSKTSP the entry was “inactive”.
To SNGHFAVGDDPEK belongs “inactive”; to FSVLVSCSWGMKFI, “inactive”.
On to TIRFGSSLPCNPDSSYLLRI, for which the amyloid nucleation score result is “inactive”.
To MKLEEELSYRFRRSWFYALW belongs “inactive”; to IAWRQAGDFITLNLSIWMRL, “inactive”.
To HIRRCEVTNTF belongs “inactive”.
Consider LPICVVMDKRFCTIVISSST, for which the amyloid nucleation score result was “inactive”.
Consider FYWSFIRLFRS, for which the amyloid nucleation score entry was “inactive”.
To WVRSFMSLCFW belongs 0.974 ± 0.089; to KPSRNESLQMALLSYIYLFR, “inactive”; to YSRGV, “inactive”.
With TLLYERNEYVVRNTYWDICL the entry was “inactive”; with SSGNMCFYPAPGYYWIATSK, “inactive”.
With CSVQVGITSCSNGGYSNVYA the entry was “inactive”; with PKNLFISRLPL, “inactive”; with SYNGYRSGLFGYGSTVSFIS, “inactive”.
Turning to LMDDTVQMYR, the amyloid nucleation score result was “inactive”.
To MQPGYQCDNVVRSCHDAHGY belongs “inactive”; to HYMRMQTSLANRYIARNVAR, “inactive”.
MILSNKVLIGCE: the amyloid nucleation score entry is “inactive”.
With ARISEFTESWNRRCYTLRYC, the amyloid nucleation score result is “inactive”.
In turn, VLFMMMERHSRSRSRGSLQ returned an amyloid nucleation score of 0.858 ± 0.23.
For the substance LFIRQG, the amyloid nucleation score entry is “inactive”.
With SDGSTRQSVRRVATPNVSRY the entry was “inactive”.
With LFDIVSQITLWQGPTHAFFK the entry was “inactive”; with QDFYFISILACGYIWH, “inactive”.
With TFGFRNRYFELLSVVIRHLA the entry was “inactive”; with FIKYFANLRKFCDILSCSL, 1.27 ± 0.14; with FYVVNSWPRMMCGQARILCL, “inactive”.
Take VSVRYPLNKECFYDCL: the amyloid nucleation score result is “inactive”.
With WAYRCTR the entry was “inactive”; with ASKENCLIVFIVYQSIIETC, “inactive”.
With TLSVLFSVSAAAFGVHRIQD, the amyloid nucleation score came out at 1.09 ± 0.21.
With YNSLRGR, the amyloid nucleation score entry was “inactive”.
With WFGLIFFLICLYTPQLSLKL the entry was “inactive”.
With FTIVTQCEPTRLSCISDNIR, the amyloid nucleation score result was “inactive”.
With VWRWGDLNSSGCCMWSRLNM the figure was 1.99 ± 0.1.
With KGSVRYIDCIVIL the figure was 1.77 ± 0.063.
To TVRGYRLAHYIAAGYSCMSR belongs “inactive”; to MTLHAILFLTRSLDALYLLT, “inactive”.
For the substance NRCQKSVVYLSLVYYHGIGM, the amyloid nucleation score entry was “inactive”.
With VEKCKLLFVTTHECLCHCSR the entry was “inactive”; with VDDIPYRFKTIKTTG, “inactive”.
To LLWYKLSELR belongs “inactive”.
With NILLND the entry was “inactive”.
Substance DLDECKFPINELSFHSSMGM had an amyloid nucleation score of 1.83 ± 0.091.
With DFSMSVNSA the entry was “inactive”.
With IGMKFCAYVLLSYKAITMFG the entry was “inactive”; with LAPRSMGIATSSHGSSNVIG, -0.387 ± 0.88.
On to DFRSLWTRLSSHRSAFYLLS, for which the amyloid nucleation score result is “inactive”.
Turning to PCMNGVASFWNCGIKIFGSF, the amyloid nucleation score entry was “inactive”.
To KRNFGWSAIRVQFIDFCLKG belongs “inactive”.
With CVMAMPSNIEV the entry was “inactive”; with WFLFRINQFKL, “inactive”.
With VGQYGRFDTSQFCVFVVGE, the amyloid nucleation score result was “inactive”.
With NGTATADRSNKSVPFPSI the entry was “inactive”.
With ASVRSGYDMVGFGILFGQMS the entry was “inactive”.
Consider YSYANSMNMGMMFMGRLGW, for which the amyloid nucleation score entry was “inactive”.
With FVHRLPGWGSKLKTIRTCSN the entry was “inactive”; with HKITVNLS, “inactive”.
With DKSDQSSRRFSGTRAYFSTM the entry was “inactive”; with WLSYKSH, 0.392 ± 0.54.
To RLVVLMCCIGYFGPADMNFA belongs 2.66 ± 0.08.
As to INFTRSQYRFLIWYASQKMS, the amyloid nucleation score result is “inactive”.
On to FYVPVYGERV, for which the amyloid nucleation score result is “inactive”.
As for PVKRVIYSRGYVQKCPLCP, the amyloid nucleation score result is “inactive”.
With CSAWGLRKF the figure was 0.673 ± 0.2; with SCNSRFMI, -0.082 ± 0.66; with ETDVHSYFVSLYSYPFAVEP, “inactive”.
To SLFMMWLYVCQLYCLFDGIE belongs “inactive”; to NRRIMVSSFRKVFLSGYGWF, “inactive”; to SILKGGFCYMNFRSGKWGV, “inactive”.
To IRSYERVSRLTGVVGSTSVD belongs “inactive”; to FYYDYSLCPCYYVGDYEHES, 2.41 ± 0.056; to TWCAHS, “inactive”.
In the case of WCTSFGELEVYRVALILRTA, the amyloid nucleation score result is “inactive”.
For the substance TYMPAVIIYRVLQAMTAAHH, the amyloid nucleation score entry was “inactive”.
To TWLIGHGAVIVRLYNFYMAI belongs “inactive”; to TLIFFDKDYYCGVRQMWNVG, “inactive”.
DLVRITMIVYYVAASHMVAS: the amyloid nucleation score result is “inactive”.
With NTLGGRLLSLCARGMAIDCL the figure was 0.625 ± 0.35; with IIADKVQSLISFDNVGMCQW, “inactive”.
With LKEQSVQMAWP the entry was “inactive”; with NGSGGWLNINNISEGRWRTG, “inactive”.
With SAIYMTVTVLVPFGFEMDNK the figure was 0.178 ± 0.49.
Regarding IYVLNLMLFVFCRNVLCDGY, the amyloid nucleation score entry was “inactive”.
For the substance SGDKSYRSRYHWMGIQRVNR, the amyloid nucleation score result is “inactive”.
To SFLYDSVNANLNSTCCCGYI belongs -0.913 ± 0.9.
To WLIFYVYIVGDPAWLLVFMS belongs “inactive”.
To AGIVRWVVFISSYWGPLLLL belongs “inactive”; to STVRVWHCLFFFLIGVHNCC, “inactive”.
As to GYLLTVLLLSMFNSFDNDWL, the amyloid nucleation score result is “inactive”.
With ASPYTGDWDTVMC the entry was “inactive”; with QAQIYWM, “inactive”.

Values taken from the supplement of paper PMC12042874.
